The target of this experiment is T1, CD4 on primary human peripheral blood mononuclear cells (PBMCs) (human, UniProt P01730 26-458).
T1 construct: whole, on cells
Briefly: flow cytometry of phage-stained human PBMCs. Background: In flow cytometry, cells or beads pass a laser one at a time.

Procedure: Harvested cell lines or thawed PBMCs (see PHAGE-ATAC workflow for harvest and thawing protocol) were resuspended in FC buffer (see above) and incubated with respective phage nanobodies for 20 min on a rotator at 4° C. Cells were centrifuged and washed with cold FC buffer twice to remove unbound phages (centrifugation steps all were 350 g, 4 min, 4° C.). […] Cells were incubated for 10 min on ice, washed twice in FC buffer and resuspended in Sytox Blue (Thermo Scientific) containing FC buffer for live/dead discrimination according to manufacturer's instructions. […] Stained cells were analyzed using a CytoFLEX LX Flow Cytometer (Beckman Coulter) at the Broad Institute Flow Cytometry Facility. Flow cytometry data were analyzed using FlowJo software v.10.6.1.

B1: PAC-tagged anti-CD4 nanobody-displaying M13 phage (phagemid pDXinit-CD4Nb-PAC) (VHH)
VHH: EVQLVESGGGSVQPGGSLTLSCGTSGRTFNVMGWFRQAPGKEREFVAAVRWSSTGIYYTQYADSVKSRFTISRDNAKNTVYLEMNSLKPEDTAVYYCAADTYNSNPARWDGYDFWGQGTQVTVSS
notes: also called anti-CD4 pNb; anti-CD4 phage nanobody; not shown: M13 phage coat protein p3, from phagemid pDXinit; 12-amino acid PAC-tag
In the case of B1, the binding result is “binds”.
